Assay results published in patent publication WO2023190851A1 (dated 2023).

Target: SARS-CoV-2 Spike RBD, His Tag (BA.2/Omicron) (SARS-CoV-2, Omicron BA.2 lineage, UniProt P0DTC2 319-537)

B1: natural human IgG antibody (HIG001677) (antibody, V domains shown)
VH: EVQLVESGGGLVQPGGSLRLACAASGLTVSRNYMNWVRQAPGKGLEWVSLVYPGGSTFYADSVKGRFTISRDNSKNTLYLQMNSLRADDTAVYYCAREVRGRGDYWGQGTLVTVST
VL: DIQMTQSPSSLSASVGDRVTITCQASQDINKYLNWYQQKPGKAPKLLIYDASNLEPGVPSRFSGSGSGTDFTFTISNLQPEDIATYYCQNYDNLPQTFGQGTRLEIKR
  Kd: 8.58 nM
